The record followed here is the domain aggregation screens of Martell et al. (2025).

A short description of this series: soluble fraction after stress (log2 fold change); higher = more stays soluble; pooled small domains, quantitative proteomics. To be noted: stress: pH 4. The procedure, abridged:
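Pooled custom libraries of small protein domains were subjected to pH 4 and measured by high-throughput quantitative proteomics. The log2 fold change in soluble amount per domain is reported, higher values meaning more remained soluble. This is used as a measure of aggregation propensity.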

For “HMTMIIQLDKNITQEQRQFLVEELNRLSISPNFVSTQFTNYIVGIPKKEFDIRLIGNLPGIADIHFV”, the “soluble fraction (log2)” value was -0.269. To “HMTMKVTADILNMRSEASTNSDIVTKLKKDDELKVIEETKDDDGVTWVKVDFNGQVGFVSKEFLG” belongs -0.623.

As to “HMTMLLEYNVSRSSKWMNKTIMDAEIPDDILIVMIKRNGQVIVPKGSTEILENDILVLSGNNLNEVALG”, the “soluble fraction (log2)” value was -1.46. Consider “HMTMNYYDILSIKRDATLEEIQKAYKEKSFQFHPDFNKGISDDSMFRIIKEAYETLSDTEKRNQYDASLNK”, for which the “soluble fraction (log2)” value is -0.134.

For “HMTMQTAEQESRLEQKLIDLSVGIDRFEGYSRPHGQLIASIADRIGTRLGMAAHDRFYMQQAAL”, the “soluble fraction (log2)” value was -0.0547. For the sequence “HMTNADRFIGEEAMVIKKIDDINNDGQVKIAGQVWSAVSEDKSPLEEGTIVKVIAIRGVKLVVEPVS”, the “soluble fraction (log2)” value was 0.0967. In the case of “HMTNALDMMKTMDSDAYTKYQKISKESSNEDRQLNELKYITNWYAGAVKKNPSMVDDYEKQKEADS” it was 0.162. In the case of “HMTNELTEIFNSIRLTKKQKELLQSNYLSLRETYFLQGKTAFNLKFKNIAGLGKSTKKVLLEFFEESIE” it was -0.499.

“HMTNIDIEKSIKNTITANYDDVLNYHNEDDNKTFASGDSRYSFDYDEKTKTLIVFTNSKVDAVFVDGIKKK”: the “soluble fraction (log2)” value is 0.255. To “HMTNISDYILEEYYKNVYPNDLNTKRIVIPNKYEEYAGKYTYITIARMVTYEHDAKKALKVLHQQAT” belongs -0.346. To “HMTNKYSSLVIGTVKTIMEEDQYKNLMGPPLKKEIIKQVDKFTNALPIEFDQNDKDFYVKKILINL” belongs -0.299; to “HMTNLKALRESKGVSQQTVADYLGITRQAYGNYETGKRQADYAALLRLAAFFGVSVDALLQP”, 0.102; to “HMTNNDIIRRVRYLFNFSDKQVIELFKLANETVSIEHVSGWLKKEEDPTLIEISDRDLAVFLNGLII”, -1.65. Turning to “HMTNQEFNEVFKLLLAAYPNTKDKESVATIYFLTIANELTKKEFAEAVVKILKTRKSGFIPQPAEILEVAK”, the “soluble fraction (log2)” value was -0.208. In the case of “HMTNSAGIERFLASGAIDGVGPAMARRIVEHFGTEALRIIESVPHRLREISGIGPKTAEKIASSYMRQ” it was -0.618.

Turning to “HMTNTDALINRAAKVVEEINPDKNTGRVSIDGDLWRAKSSSGELIEQNKQVIVISIESTIVTVKI”, the “soluble fraction (log2)” value was -0.317. In the case of “HMTNTWNNIVERNDLFFKKFTNTPFNGKIETYWPNGNLKETGIITDGKKDNLWEYYYENGNPKEVEF” it was -0.0781; in that of “HMTNVFSIIGKKALVIKDIDPIHSSGQIKLNGEVWSAETENDEIIKEGSEVEVLKINGVKAIVKLV”, 0.149; in that of “HMTNVIPKAMAPFNGSTIIADGIKNIKDHIDNLYITVGYKGATLSEHVINKGVSAVFNTTGKGNAWWVYN”, 0.00444. In the case of “HMTNVLSEQESKLLERMNKAGLNAEITVKKAAQILNLSESAARNVLNRLVGKGYLTVDTSRLPFLFQR” it was 0.122; in that of “HMTNVVSKNKAKEIAMNIINDTVLQGQTAATFKEIVKANGVYVVKIEIQGQEYTSYITKDGKIVFPYGVEV”, -0.661.

Take “HMTNYSFIVNENFNNKRIDQVVANHYPKISRTKVNKIIKNNLLKLNGSTFNDPSAKVKLGDQIEFENL”: the “soluble fraction (log2)” value turned out to be 0.00451. In the case of “HMTPAKQVSAKAERWIDQLGSSDWEKREEAAAELKKLGGAAKSALEKALKNADPEVASKAEELLEALES” it was 0.213; in that of “HMTPATVVIPKVAGQTVAEAKETLKNANFEIGEEKDESSDTVEEGRVIRTDPESGTNRKEGTKINLIVSS”, 0.0687; in that of “HMTPFVINVDRHGAVIINEKTVDIDEAVVLARQERSQGKSILLAGDKKAPYEAIIRVLDALKQAG”, -0.464. In the case of “HMTPNATWQDDAQNLLRDLIQHQPVLVQISAAKRLRDQAEQISRITGGETVTREHVEAAGHALGMGVT” it was -0.0443. On to “HMTPNRDDEHLQSLRDYYASNRRIPSLQRIAALLGFSSRSAAVKLMGRLADEGFVERTVDDDAWIPGSRFF”, for which the “soluble fraction (log2)” value is -0.194. To “HMTPQDYEYLRKLLKDQSGLDLSVDKQYLLESRLVPLSRKAGLAGIPELVQKMKAGSASLTAQVVEAMTT” belongs 0.07; to “HMTPVFGEEETVLQAAVRGIISDTDQWTMEAEAKSMLNQLGFSDYEEKMAHMSGGQKKRVALVNALLTP”, -0.555. To “HMTQDFEPGGQVFSRGEWLTIIRVNKSNGAVSSVTTPNYSFLGYSGTMKVTPDRITDYKAPSAEEAAVAS” belongs -0.0277. As for “HMTQGRVTGDGVNVRSQPNTDSAILTRVSTGKVVELISLKDNWYNVVVNGTKGYIRADYVSPYDG”, the “soluble fraction (log2)” value is 0.00816. In the case of “HMTQLPEVPVERGMVLEEVQSGWVGAVTRVEKSGGMHVVALEDRRGKSRSFRLGFGFLLEGQPIRLMPPAP” it was -0.882; in that of “HMTRAETPMAFIRAMVEAYTERGLDPNQALRKAQITPSQLKSTNARVTTLQMEWMSETAMREL”, -0.464; in that of “HMTRDAQLAALERLMDDPSPVVRKAVLKGVQAAGTEGLLWLQQLSKNQTLGPYALALLTELR”, -0.0392. To “HMTRNGTVTFFNHDKGYGFIKDVLTQESVFVHINSLSEPINEQNKVSFEIEMGPRGSNAINVKLI” belongs -1.86; to “HMTRTEYMAQLEKYLKKLPHKEFQEAITFFNEYFDEAGPEKETAIMEELGSPKEAASELITNILNRHI”, -0.101.

Regarding “HMTRTISKVAKELAINIETVRFYERRGLIEQPPKPELGYRHYPDETVNRIRFIKRAQELGFTLEEIANLLS”, the “soluble fraction (log2)” value was -1.21. For the sequence “HMTRVDALDQLAAIRFSSHIFAEDQDLRMVVVDGQRIGEGDIVRDEIRLEQITETGVIFEYQGERFPIDV”, the “soluble fraction (log2)” value was -2.21. For “HMTRYQHLAMLLEKRIAQGLYRNGERLPSVRSLSAEHGVSISTVQQAYYLLEQKQLIIPQSRSGYYVAPH”, the “soluble fraction (log2)” value was -0.378. In the case of “HMTSEVPVGSNVRIRASTLAGERDFEGTMLPPAGEGLTTLKLVNGYNLSYPSKDVLDIEFLGGAGE” it was -0.367. To “HMTSHPTHTILDGKVHVFMRDGSPFWWGGFHFKGKYLRTSTKQKNLDSAKTIAQQWYFQKQTEIASGE” belongs -0.0801. To “HMTSKVTVLAVNGRITVSGKEQDETVSVYDTGGRLLYQGESDVINVPRKAMYIVTVSRKSYKVIV” belongs 0.00912; to “HMTSLAGIERFLASGAIAGVGEAMAHRLVQKFGKETLEIIEKKPSRLTEVAGVGKKTAAKIHASYMEK”, 0.0893; to “HMTSLGLEGLVNTTAIATSDLRPSGWALAGERKIFVVSEGEFIDNGDKIRILTVDGNRIVVRKETNK”, -0.189. On to “HMTSLTSDEEQIINVLRAEESVYINALATKSKIPLQKLLGLLIQLEFKGLIHSLPGSHYKIV”, for which the “soluble fraction (log2)” value is -0.473. With “HMTSNIIIVPNVVGMTKEQATAALAAAGLNIKLSGVETTDTAAVAVKQKPSANTKVEEGSVVTVEFDLK”, the “soluble fraction (log2)” value was -1.35.

Consider “HMTSPKSRIVSALLASPSRPEELAMRLGEDILTLMRTLTDFEASGIIQRLPDGRYTPTREYHLGLVDK”, for which the “soluble fraction (log2)” value was -0.534.

Regarding “HMTSPRRLYALIVEHVGKDGVMHRSDVENVLAKVESEMDVDDLLDQLEINGTIIRRQDGTWQLL”, the “soluble fraction (log2)” value was -1.66. In the case of “HMTSRFITTEEGTLYVDADGRKVSGWQTIDGSRYYFDEHGIRQSGTIEVNGETYVLDEDGVL” it was -1.51; in that of “HMTSRWEIGYNVAKKYYDEHGNLDVERAVYDNFELKKWLNTQRYKNSAGTLAEKYKIKLDELGMNWER”, -0.00494. Take “HMTSSQLYLIEEDMEGERLDAFLAEVIADLSRTAIKDLISNGRVLVDGQARKPSYRVKEGEQVLIHVPEAR”: the “soluble fraction (log2)” value is -1.31. To “HMTSVFQNSDGTWGHLTKTVNPLIYTIEYGRRTGFSSREEAEESYQRSLTSYQDQLSKLKKERD” belongs 0.223. For the sequence “HMTSVPGTVVTNANLRGGPGTNYPIVGKAPAGTTVNVVESTADRTWYYLDTGSWIAAFLVKLS”, the “soluble fraction (log2)” value was -0.229. With “HMTSVRVPVKKEIWFWAIKESQRDLNEILARFPKMDKWINQEENPTFNQLEKVAKFLRVPFGYMFLDKPPK”, the “soluble fraction (log2)” value came to 0.332. To “HMTTETGTVKWFNEGKGFGFIAPDGGGKDLFAHFKEIQGSGFKTLTENQRVQFEVTQGQKGPQASNIRTL” belongs -0.183; to “HMTTHEQVAILRRELNGLVGAWHHRTGQAHGVTHSKLRKELGGPPAAVASAAQLSARIEKIRQWAT”, -0.0306. With “HMTTIAQMTGPQRAAVILLVLGEDHGRTIWQEFDDDEIRIITRAMAELGTVDADEVERLMLDFVGKLSS”, the “soluble fraction (log2)” value is -1.75. In the case of “HMTTIAQNISNYRTRANMTQQQVADKLSVSHHTVSKWELGINTPSVEDMQKLAQVFGVTITELVVD” it was -0.662; in that of “HMTTIHVDPEKISKIIGPGGKTIKKIVEETGAKIDIEEDGRVYIAAVNSEEAAKAIDMINGI”, -0.274; in that of “HMTTIPAGRQQYILSLIRREGTVTVSRLAQELEVSELTIRRDLDQMAARNLVERTHGGATERR”, not below 0.43. In the case of “HMTTKEEAAYQAIRSAIIDGELKPGQSVTIRDLASRFDLGRTPITDAMKHLALDGWLETTTGVGTRV” it was -0.15; in that of “HMTTLAADFNSDGRVDIGDLSILAGNWGKSRTNEVDFNKYGDADYNGRIDIIDLSILATQFGQTDNSN”, -0.142; in that of “HMTTLDTVARQLRDRIREQLDPTGEMSDESLLRTIEEAVYRYSSSGHVLTANEKETVIRRIFHSFR”, -0.201. On to “HMTTMNSADLIKELEKAGWTLRGVKGSHHIYTHPARGGHLSVPHPKKDLGAGLARQLRKQAGL”, for which the “soluble fraction (log2)” value amounted to 0.346.

As to “HMTTPAAISKIKKLEEAKRLLATTTYSMKEIAVKLKYKSHTHFGMDFKNNTGMTPAEYRKAIKAKREKQMN”, the “soluble fraction (log2)” value came out at 0.173. In the case of “HMTTQERVSYSAFINDVETGRVAKVVISGYTIEGTRTNNSSFVTERPYGVDSNLSEVLMQNSVSIEGKA” it was -0.523; in that of “HMTTQVNTVKIQLANGYEMTVLTSKTNVKEILEDNNIILENNEKVTPNIDEEISSNKTIKITDKSN”, -0.0659; in that of “HMTTTSGLIKTIQTGRRKLGMDDETYRALLADVSGGKTSSKDLNAYQLKEVLRRMREAGFRS”, 0.371. To “HMTVDAVALGRRVRHLRKQAGLTLDQLAERTGVSGSHLSLVENARREPRLSLVQRIAEVLGVPVEDL” belongs -0.602.
